Data taken from the RNAGym collection of RNA variant scans (doi:10.1073/pnas.2313332121).

B1: TPR t1 (parent)
chain: GACCAAUCUGCCCUCAGAGCUCGAGAACAUCUUCGGAUGCAGAGGAGGCAGGCUUCGGUGGCGCGAUAGCGCCAACGUCCUCAACCUCCAAUGCAUCCCACCACAUGAUGAUGCCUGAAGAGCCUUGGUUUUUUG

Variants of: B1
Experiment: polymerase ribozyme fitness, log enrichment relative to wild type (log ratio); higher = more active; in vitro selection for triplet polymerase activity
Summary of the method: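 To select mutant libraries of each subunit of a heterodimeric triplet polymerase ribozyme, built by PCR and transcribed, each was annealed with a biotinylated primer, partner subunit and triplets, then incubated frozen at −7 °C. Extended constructs were gel-excised, captured on streptavidin beads and amplified by RT-PCR, in one round carried out in triplicate. Illumina sequencing of input and output libraries kept genotypes with ≥10 input reads and ≥1 read per output. Fitness is the base-2 logarithm of genotype enrichment relative to wild-type enrichment, from inverse-variance-weighted replicate averages.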

| Variant | polymerase ribozyme fitness (log ratio) |
| --- | --- |
| GACCAAUUUGCCCUCAGAGCUCGAGAACAUCUUCGGAUGGAUAGGAGGAAGGCUUCGGUGGCGCGAUAGCGCCAACGUCCUCAACCUCCAAUGCAUCCCACCACAUGAUGAUGCCUGAAGAGCCUUGGUAUUUUG | -2.72 |
| GACCAAUUUGCCUUCAGAGCUCGAGAACAUCUUCGGAUACAGAGGAGGCAGGCUUCGGUGGCGCGAUAGCGCCAACGUCUUCAACCUCCAAUGCAUCCCACAACAUGAUGAUGCCUGAAGAGCCUUGGUUUUUUG | -2.98 |
| GACCAAUUUGCCCUCAGAGCUCGAGAACAUCUUCGGAUGUAGAGGAAGCAGGCUUCGGUGGCGCGAUAGCGCCAACGUCCUCAACCUCCAAUGCAUCCCACCACAUGAUGAUGCCUGAAGAGCCUUGGUUUUUUG | -1.72 |
| GACCAAUUUGCCCUCAGAGCUCGAGAACAUCUUAGGAUGCAGAGGAGGCAGGCUUCGGUGGCGCGAUAGCGCCAACGUCCUCAACCUCCAAUGCAUCCCACCACAUGAUGAUGCCUGAGGAGCCUUGGUUUUUUG | -1.9 |
| GACCAAUUUGCCCUAAGAGCUCGAGAACAUCUUCGGAUGCAGAGGAGGCAGGCUUCGGUGGCGCGAUAGCGCCAACGUCCUCAACCUCCAAUGCAUCCCACCACAUGAUGAUGCCUGUAGCGCCUUGGUUUUUUG | 0.853 |
| GACCAAUUUGCCCUCAGAGCUCGAGAAGAUCUUCGGAUGCAGAGGAGGCAGGCUUCGGUGGCGCGAUAGAGCCAACGUCCUCAACCUCCAAUGCAUCCCACCACAUGAUGAUGCCUGAAGAGCCUUGGUUAUUUG | -4.27 |
| GACCAAUUUGCCCUCAGAGGUCGAGAACAUCUUCGGAUGCAGAGGAGGCAGGCUUCGGUGGCGCGAUAGCGCCAACGUCCUCAACCUCCAAUGCGUCCCACCACAUGAUGAUUCCUGAAGAGCCUUGAUUUUUUG | -2.96 |
| GACCAAUUUGCCCUCAGAGCUCGAGAACAUCUUAUGAUGCAGAGGAGGCAGGCUUCGGUGGCUCGAUAGCGCCAACGUCCUUAACCUCCAAUGCAUCCCACCACAUGAUGAUGCCUGAAAAGCCUUGGUAUUUUG | -4.37 |
| GACCAAUUUGCCCUCAGAGCUGGAGAACAUCUUCGGAUGCAGAGGAGGCAGGCUUCCGUGGCGCGAUAGCGCCAACGUCCUCAACCUCAAAUGCGUCCCACCACAUGAUGUUGCCUGAAGUGCCUUGGUUUUUUG | -3.38 |
| GACCAAUUUGCCCUCAGAGCUCGAGAAAAUCUUCGGAUGCAGAGGAGGCAGGCUUCGGUGGCGCGAUAGCGACAACGUCCUCCACCUCCAAUGCAUCCCACCACAUGAUAAUGCCUGAAGAGCCUUGGUUUUUUG | 1.02 |
| GACCAAUUUGCCCUCAGAGCUCGAGAACAUCUUCGGAUGAAGAGGAGGCAGGCUUCGGUGGCGCGAUAGCGCCAACGUCCUCAACAUCCAAUGCAUCCCACCACAUGAUGAUGCCUGAAGAGCCUUGGUCUUUUG | -2 |
| GACCAAUUUGCCCUCAGAGCUCGAGAACAUCUUCGGAUGCAGAGGAGGUAGGCUUCGGUGGCGCGAUAGCGCCAACGUCCUCAACCUCCAAUGGAUCCCACCAUAAGAUGACGCCUGAAGAGCCUUGGUUUUUUG | -1.29 |
| GACCAAUUUGCCCUCAGAGCUCGAGAAUAUCUUCGGAUGCAGAGGAGGCAGGCUUCGGUGGCGCGAUAGCGCUAACGUCCUCAACCUCCAAUGCAUCCCACCACAUGAUGAUGCCUGAAGAGCCUUGGUUUUUUG | -1.68 |
| GACCAAUUUGCCCUCAGAGCUCGAGAACAUCUUAGGAUGCAGAUGAGGCAGGCUUCGGUGUCGCGAUAGCGCCAACGUCCUCAACCUCCAAUGCAUCCCACCACAUGAUGAUGCCUGAAGAGCCUUGGUGUUUUG | -4.49 |
| GACCAAUUUGCCCUCAGAGCUCGAGAACAUCUUCGGAUGCAGAGGAGGCAGGAUUCGGUGGCGCGAUAGCGCCAACGUCCUCAACCUCCAAUGCAUCCUAGCACAUGAUGAUGCCUGAAGAGCCUUGGUUUUUUG | -3.52 |
| GACCAAUUUGCCCUCAGAGCUCGAGAACAUCUUCGGAUGGAGAGGAGGCAGGCUUCGGUGACGCGAUAGCGCCAACGUCCUCAACCUCCAAUGCAUCCCACCACAUGAUGAUGCCUGAAAAGCCUUGGUUUUUUG | 1.65 |
| GACCAAUUUGCCCUCAGAGCUGGAGAACAUCUUCGGAUCCAGAGGAGGCAGGCUUCGGUGGCGCGAUAGCGCCAACGUCCUCAACCUCCAAUGCAUCCCACCACAUGAUGAUGCCUGAAGAGCCUUGGUUUUUUG | -4.04 |
| GACCAAUUUGCCCUCAGAGGUCGAGAACAUCUUCGGAUGCAGAGGAGGCAGGCUUCGGUGGCGCGAUAGCGCCAACGUCCUCAACCUCCAAUGCAUCCCACCACAUGAUGAUGCCUGAAGAGCCUUGGUUUUUUG | -3.53 |
| GACCAAUUUGCCCUCAGAGAUCGAGAACAUCUUCGGAUGCAGAGGAGGCAGGCUUCGGUGGCGCGAUAGCGCCAACGUCCUCAACCUCCAAUGCAUCCCACCACAUGAUGAUGCCUGAAGAGCCUUGGUUUUUUG | -1.98 |
| GACCAAUUUGCCCUCAGAGCUCGAGAACAUCUUCGGAUGCAGAGGAGGCAGGGUUAGGUGGCGCGAUAGCGCCAACGUCCUCAACUUCCAAUGCAGCCCACCACAUGAUGAUGCCUUAAGAGCCUUGGUUUUUUG | -2.48 |
| GACCAAUUUGCCUUCAGAGCUCGAGAACAUCUUCGGAUGCAGAGGCGGCAGGCUUCGGAGGCGCGAUAGCUCCAACGUGCUCGACCUCCAAUGCAUCCCACCACAUGAGGAUGCCUGAAGAGCCUUGGUUUAUUG | -7.26 |

| Variant | polymerase ribozyme fitness (log ratio) |
| --- | --- |
| GACCAAUUUGCCCUCAGAGCUCGAGAACAUCUUCGGAUGCAGAGGAGGUAGGCUUCGGUGGCGCGAUAGCGCCAACGUCCUCAACCUCCAAUGCAUCCCACCACAUGAUGAUGCCUGAAGAGCCUUGGUUUUUUG | 0.318 |
| GACCAAUUUGCCCUCAGAGGUCGAGAACAUCUUCGGAUGCAGAGGAGGCAGGCUUCGGUGGCGCGAUAGCGCCAACGUCCUCAACCUCCAAUGCAUCCCACCACAUGAUGCUGCCUGAAGAGACUUGGUUUUUUG | -5.26 |
| GACCAAUUUGCCCUCAGAGCUCGAGAACAUCUUAGGAUGCAGAUGAGGCAGGCUUCGGUGACGCGAUAGCGCCAACGUCCUCAACCUCCAAUGCAUCCCACCACAUGAUGAUGCCUGAAGAGCCUUGGUGUUUUG | -4.33 |
| GACCAAUUUGCCCUCAGAGCUCGAGAACAUCUUCGGAUGCAGAGGAGGGAGGCUUCGGUGGCGCGAUAGCGCCAACGUCCUCAACCUCCAAUGCAUCCCACCACAAGAUAAUGCCUGAAGAGCCUUGGUUUUUUG | -1.48 |
| GACCAAUUUGCCCUCAGAGCUCGAGAAUAUCUUCGGAUGCAGAGGAGGCAGGCUUAGGUGGCGCGAUAGCGCCAACGUCCUCAACCGCCAAUGCAUCCCACCACAUGAUGAUGCCUGAGGAGCCUUGGUCUUUUG | -1.12 |
| GACCAAUUUGCCCUCAGAGCUCGAGAACAUCUUCGGAUGCAGAGGAGGUAGGCUUCGGUGACGCGAUAGCGCCAACGUCCUCAACCUCCAAUGCAUCCCACCACAUGAUGAUGCCUGAAGAGCCUUGGUUUUUUG | 0.346 |
| GACCAAUUUGCCGUCAGAGCUCGAGAACAUCUUCGGAUGCAGAGGAGGCAGGCUUCGGUGGCGCGAUAACGACAACGUCCUCAACCUCCAAUGCAUCCCACCACAUGAUGAUGCCUGAAGAGCCUUGGUUUUUUG | -4.71 |
| GACCAAUUUGCCCUUAGAGCUCGAGAACAUCUUCGGAUGCAGAGGAGGCAGGCUUCUGUGGCGCGAUAGCGCCAACGUCCUUAACCUCCAAUGCAUCCCACCACAUGAUGAAGCCUGGAGAGCCUUGGUUUUUUG | 0.233 |
| GACCAAUUUGCCCUCAGAGCUCGAGAACAUCUUCGGAUGCAGAGGAGGCAGGUUUCGGUGGCGCGAUAGCGCCAAUGUCCUCAACCUCCAAUGCAUCCCACCACAUGAUGAUGCCUGAAGAGCCUUGGUUUUUUG | 0.843 |
| GACCAAUUUGCCCUGUGAGCUCGAGAACAUCUUCGGAUGCAGAGGAGGCAGGCUUCGGUGGCGCGAUAGUGCCAACGUCCUCAACCUCCAAUGCAUCCCACCACAUGAUGAUGCCUGCAAAGCUUUGGUUUUUUG | -2.69 |
| GACCAAUUUGCCUUCAGAACUCGAGAACAUCUUCGGAUGUAGAGGAGGCAGGUGUCGGUGGCGCGAUAGCGCCGACGUCCUCAACCUCCAAUGCAUCCCACCACAUGAUGAUGCCUGAAGAGCCUUGGUUAUUUG | -5.02 |
| GACCAAUUUGCCCUCAGAGCUCGAGAACAUCUUCGGAUGCAGAGGAGGCAGGAUUCGGUGGCGCGAUAGCGCCAACGUCCUCAACCUCCAAUGCAUCCCACCACAUGAUGAUGCCUAAAGAGCCUUGGUGUUUUG | -0.499 |
| GACCAAUUUGCCCUCAGAGCUGGAGAACAUCUUCGGAUGCAGAGGAGGCAGGCUUCGGUGGCGUGAUAGCGCCAACGUCCUCAACCUCCAAUGCAUCCCACCACAUGAUGAAGCCUGAAGAGCCAUGGUCUUUUG | -2.33 |
| GACCAAUUUGCCCUGAGAGCUCGAGAACAUCUUCGGUUGCAGAGGAGGCAGGCUUCGGUGGCGCGAUAGCGCCAACGUCCUCAACCUCCAAUGCAUCCCACCACAUGAUGAUGCCUGAAGAGCCUUGGUUUUUUG | -1.75 |
| GACCAAUUUGCCCUCAGAGCUAGAGAACAUCUUCGGAUGCAGAGGAGGCAGGCUUCGGUGGCUCGAUAGCGCCAACGUCCCCAACCUCCAAUGCAUCCCACCACGUGAUGAUGCCUGAAGAGCCUUGGUUUUUUG | -7.76 |
| GACCAAUUUGCCCUCAGAGCUCGAGAACAUCUUCGGAUGUAGUGGAGGCAGGCUUCGGUGGCGCGAUAGCGCCAACCUCCUCAACCUCCAAUGCAUCCCACCACAUGAUGAUGCCUGAAGAGCCUUGGUUUUUUG | -1.32 |
| GACCAAUUUGCCCUUAGAGCUCGAGAACAUCUUCGGAUGCAGAGCAGGCUGGCUUCGGUGGCGCGAUAGCGCCAACGUCCUCAACCUCCAAUGCAUCCCACCACAUGAUGAUGCCUGAAGAGCCUUGGUUUUUUG | -1.64 |
| GACCAAUUUGCCCUCAGAGCUGGAGAACAUCUUCGGAUGCAGAGGAGGCAGGCUUCGGUGGCGCGAUAGCGCCAACGUCCUCAACCUCCAAUGCAUCCCACCAGAUGAUGAUGCCUAAAGAGCCGUGGUUUUUUG | -4.71 |
| GACCAAUUUGCCCUCAGAGCUCGAGAACAUCUUCGGAUGCAGAGGAGGCAGGAUUCGGUGGCGCGAUAGCGCCAACGUCCUCAACCUCCAAUGCAUCCCACCACAUGAUGAUGCCUGAAGAGCCUUGGUUUUUUG | 0.141 |
| GACCAAUUUGCCCUUAGAGCUCGAGAACAUCUUCGGAUGCAGAGGAGGCAGGAUUCGGUGGCGCGAUAGCGCCAACGUCCUCAACCUCCAAUGCAUCCCACCACAUGAUGAUGCCUGAAGAGCCUUGGUUUUUUG | -0.442 |
| GACCAAUUUGCCUUCAGAGCUGGAGAACAUCUUCGGAUGCAGAGGAGGCAGGCUUCGGAGGCGCGAUAGCGCCAACGUCCCCAACCUCCAAUGCAUCCCACCACAUGAAGAUGCCUGAAGAGCCUUGGUUUUUUG | -5.73 |
